From patent US20120171195A1

How the values were obtained:
[1] = target: HLA-B*4402 (human); test: Luminex beads; MAb 1/200; competitor rHLA-E
[2] = target: HLA-Cw*0501 (human); test: Luminex beads; MAb 1/200; competitor rHLA-E
[3] = target: HLA-Cw*0702 (human) (UniProt P10321); test: Luminex beads; MAb 1/200; competitor rHLA-E
[4] = target: HLA-B*4701 (human); test: Luminex beads; MAb 1/200; competitor rHLA-E
[5] = target: HLA-B*5201 (human); test: Luminex beads; MAb 1/200; competitor rHLA-E
[6] = target: HLA-Cw*0302 (human) (UniProt P10321); test: Luminex beads; MAb 1/200; competitor rHLA-E
[7] = target: HLA-B*4403 (human); test: Luminex beads; MAb 1/200; competitor rHLA-E
[8] = target: HLA-Cw*1502 (human); test: Luminex beads; MAb 1/200; competitor rHLA-E
[9] = target: HLA-B*6701 (B67) (human) (UniProt P01889); test: Luminex single-antigen beads; MEM-E/02 1/600; serum Mi114 1/100

Row | MFI [1] [MFI] | MFI [2] [MFI] | MFI [3] [MFI] | MFI [4] [MFI] | MFI [5] [MFI] | MFI [6] [MFI] | MFI [7] [MFI] | MFI [8] [MFI] | MFI [9] [MFI] | Substance
1 | 66 | 147 | 137 | 67 | 87 | 137 | 75 | 86 |  | murine monoclonal antibody (MAb) MEM-E/02
2 |  |  |  |  |  |  |  |  | < 500 | murine monoclonal antibody MAb MEM-E/02
